Data from patent publication US20130130922A1, “ANALYSIS OF METHYLATION SITES” (Centre for Addiction and Mental Health, priority 2011, published 2013).

Tested on: Control-H reference system (specific and nonspecific 200 bp DNA fragments from pBR322)
Assay: mTAG labeling, biotinylation, capture on streptavidin beads and multiplex real-time PCR of Control-H reference system
Conditions: Control-H alone; Ado-11-amine cofactor; 228 nM enzyme; 37° C. 2 hours; percentage of material used for bead separation

B1: HpaII (Q104A/N335A): His6-tagged M.HpaII C5 DNA methyltransferase (CCGG target site) double-alanine mutant Q104A/N335A (protein, UniProt P15446 1-358, looked up, variant Q104A N335A)
Type II methyltransferase …: MKDVLDDNLLEEPAAQYSLFEPESNPNLREKFTFIDLFAGIGGFRIAMQNLGGKCIFSSEWDEQAQKTYEANFGDLPYGDITLEETKAFIPEKFDILCAGFPCAAFSIAGKRGGFEDTRGTLFFDVAEIIRRHQPKAFFLENVKGLKNHDKGRTLKTILNVLREDLGYFVPEPAIVNAKNFGVPQNRERIYIVGFHKSTGVNSFSYPEPLDKIVTFADIREEKTVPTKYYLSTQYIDTLRKHKERHESKGNGFGYEIIPDDGIANAIVVGGMGRERNLVIDHRITDFTPTTNIKGEVNREGIRKMTPREWARLQGFPDSYVIPVSDASAYKQFGASVAVPAIQATGKKILEKLGNLYD
modifications: His6 tag
- level of nonspecific probe found on beads: 5-6%
- yield of unmethylated (specific) probe recovered on beads: 50-60%
